Reference: patent US20050260177A1

Columns and labels:
[1] = biological target: Ra12 protein (Mycobacterium tuberculosis); assay: ELISA, Ra12 on plate, serum 1:1000, well 1
[2] = biological target: Ra12 protein (Mycobacterium tuberculosis); assay: ELISA, Ra12 on plate, serum 1:1000, well 2
[3] = biological target: Ra12 protein (Mycobacterium tuberculosis); assay: ELISA, Ra12 on plate, serum 1:2000, well 1
[4] = biological target: Ra12 protein (Mycobacterium tuberculosis); assay: ELISA, Ra12 on plate, serum 1:2000, well 2
[5] = biological target: Ra12 protein (Mycobacterium tuberculosis); assay: ELISA, Ra12 on plate, serum 1:4000, well 1
[6] = biological target: Ra12 protein (Mycobacterium tuberculosis); assay: ELISA, Ra12 on plate, serum 1:4000, well 2
[7] = biological target: Ra12 protein (Mycobacterium tuberculosis); assay: ELISA, Ra12 on plate, serum 1:8000, well 1
[8] = biological target: Ra12 protein (Mycobacterium tuberculosis); assay: ELISA, Ra12 on plate, serum 1:8000, well 2
[9] = biological target: Ra12 protein (Mycobacterium tuberculosis); assay: ELISA, Ra12 on plate, serum 1:16000, well 1
[10] = biological target: Ra12 protein (Mycobacterium tuberculosis); assay: ELISA, Ra12 on plate, serum 1:16000, well 2
[11] = biological target: Ra12 protein (Mycobacterium tuberculosis); assay: ELISA, Ra12 on plate, serum 1:32000, well 1
[12] = biological target: Ra12 protein (Mycobacterium tuberculosis); assay: ELISA, Ra12 on plate, serum 1:32000, well 2
[13] = biological target: Ra12 protein (Mycobacterium tuberculosis); assay: ELISA, Ra12 on plate, serum 1:64000, well 1
[14] = biological target: Ra12 protein (Mycobacterium tuberculosis); assay: ELISA, Ra12 on plate, serum 1:64000, well 2
[15] = biological target: Ra12 protein (Mycobacterium tuberculosis); assay: ELISA, Ra12 on plate, serum 1:128000, well 1
[16] = biological target: Ra12 protein (Mycobacterium tuberculosis); assay: ELISA, Ra12 on plate, serum 1:128000, well 2
[17] = biological target: Ra12 protein (Mycobacterium tuberculosis); assay: ELISA, Ra12 on plate, serum 1:256000, well 1
[18] = biological target: Ra12 protein (Mycobacterium tuberculosis); assay: ELISA, Ra12 on plate, serum 1:256000, well 2
[19] = biological target: Ra12 protein (Mycobacterium tuberculosis); assay: ELISA, Ra12 on plate, serum 1:512000, well 1
[20] = biological target: Ra12 protein (Mycobacterium tuberculosis); assay: ELISA, Ra12 on plate, serum 1:512000, well 2
[21] = biological target: Ra12 protein (Mycobacterium tuberculosis); assay: ELISA, Ra12 on plate, serum 1:1024000, well 1
[22] = biological target: Ra12 protein (Mycobacterium tuberculosis); assay: ELISA, Ra12 on plate, serum 1:1024000, well 2
[23] = biological target: Ra12 protein (Mycobacterium tuberculosis); assay: ELISA, Ra12 on plate, serum 1:1000, average of 2 wells
[24] = biological target: Ra12 protein (Mycobacterium tuberculosis); assay: ELISA, Ra12 on plate, serum 1:2000, average of 2 wells
[25] = biological target: Ra12 protein (Mycobacterium tuberculosis); assay: ELISA, Ra12 on plate, serum 1:4000, average of 2 wells
[26] = biological target: Ra12 protein (Mycobacterium tuberculosis); assay: ELISA, Ra12 on plate, serum 1:8000, average of 2 wells
[27] = biological target: Ra12 protein (Mycobacterium tuberculosis); assay: ELISA, Ra12 on plate, serum 1:16000, average of 2 wells
[28] = biological target: Ra12 protein (Mycobacterium tuberculosis); assay: ELISA, Ra12 on plate, serum 1:32000, average of 2 wells
[29] = biological target: Ra12 protein (Mycobacterium tuberculosis); assay: ELISA, Ra12 on plate, serum 1:64000, average of 2 wells
[30] = biological target: Ra12 protein (Mycobacterium tuberculosis); assay: ELISA, Ra12 on plate, serum 1:128000, average of 2 wells
[31] = biological target: Ra12 protein (Mycobacterium tuberculosis); assay: ELISA, Ra12 on plate, serum 1:256000, average of 2 wells
[32] = biological target: Ra12 protein (Mycobacterium tuberculosis); assay: ELISA, Ra12 on plate, serum 1:512000, average of 2 wells
[33] = biological target: Ra12 protein (Mycobacterium tuberculosis); assay: ELISA, Ra12 on plate, serum 1:1024000, average of 2 wells

**Q.** Which ELISA absorbance at 450 nm [1] does the source give for Preimmune sera (antibody) here?
**A.** 0.18 OD450

**Q.** And the ELISA absorbance at 450 nm [2]?
**A.** 0.18 OD450

**Q.** And the ELISA absorbance at 450 nm [3]?
**A.** 0.15 OD450

**Q.** And the ELISA absorbance at 450 nm [4]?
**A.** 0.17 OD450

**Q.** And the ELISA absorbance at 450 nm [5]?
**A.** 0.15 OD450

**Q.** What about the ELISA absorbance at 450 nm [6] of the same substance?
**A.** 0.15 OD450

**Q.** What about the ELISA absorbance at 450 nm [7] of the same substance?
**A.** 0.15 OD450

**Q.** What about the ELISA absorbance at 450 nm [8] of the same substance?
**A.** 0.15 OD450

**Q.** What about the ELISA absorbance at 450 nm [9] of the same substance?
**A.** 0.15 OD450

**Q.** And the ELISA absorbance at 450 nm [10]?
**A.** 0.14 OD450

**Q.** And the ELISA absorbance at 450 nm [11]?
**A.** 0.14 OD450

**Q.** What about the ELISA absorbance at 450 nm [12] of the same substance?
**A.** 0.13 OD450

**Q.** What about the ELISA absorbance at 450 nm [13] of the same substance?
**A.** 0.14 OD450

**Q.** What about the ELISA absorbance at 450 nm [14] of the same substance?
**A.** 0.13 OD450

**Q.** What about the ELISA absorbance at 450 nm [15] of the same substance?
**A.** 0.15 OD450

**Q.** What about the ELISA absorbance at 450 nm [16] of the same substance?
**A.** 0.14 OD450

**Q.** What about the ELISA absorbance at 450 nm [17] of the same substance?
**A.** 0.15 OD450

**Q.** What about the ELISA absorbance at 450 nm [18] of the same substance?
**A.** 0.15 OD450

**Q.** What about the ELISA absorbance at 450 nm [19] of the same substance?
**A.** 0.16 OD450

**Q.** What about the ELISA absorbance at 450 nm [20] of the same substance?
**A.** 0.16 OD450

**Q.** What about the ELISA absorbance at 450 nm [21] of the same substance?
**A.** 0.16 OD450

**Q.** And the ELISA absorbance at 450 nm [22]?
**A.** 0.16 OD450

**Q.** What about the ELISA absorbance at 450 nm [23] of the same substance?
**A.** 0.18 OD450

**Q.** And the ELISA absorbance at 450 nm [24]?
**A.** 0.16 OD450

**Q.** What about the ELISA absorbance at 450 nm [25] of the same substance?
**A.** 0.15 OD450

**Q.** And the ELISA absorbance at 450 nm [26]?
**A.** 0.15 OD450

**Q.** What about the ELISA absorbance at 450 nm [27] of the same substance?
**A.** 0.15 OD450

**Q.** And the ELISA absorbance at 450 nm [28]?
**A.** 0.14 OD450

**Q.** And the ELISA absorbance at 450 nm [29]?
**A.** 0.13 OD450

**Q.** And the ELISA absorbance at 450 nm [30]?
**A.** 0.14 OD450

**Q.** And the ELISA absorbance at 450 nm [31]?
**A.** 0.15 OD450

**Q.** And the ELISA absorbance at 450 nm [32]?
**A.** 0.16 OD450

**Q.** And the ELISA absorbance at 450 nm [33]?
**A.** 0.16 OD450
